These results are taken from FireProtDB (doi:10.1093/protein/8.11.1153).

The labels stand for the following.
B1: Alpha-lactalbumin, P00712 (parent)
chain: MMSFVSLLLVGILFHATQAEQLTKCEVFQKLKDLKDYGGVSLPEWVCTAFHTSGYDTQAIVQNNDSTEYGLFQINNKIWCKDDQNPHSRNICNISCDKFLDDDLTDDIVCAKKILDKVGINYWLAHKALCSEKLDQWLCEKL

Variants of B1 are the subject of this data set. Particulars: Capra hircus; pH 2; 20 °C; Urea; CD; NaCl-HCl 100 mM; structure 1HFY; whole UniProt chain shown.

With T52I, the “ddG of mutation (higher = less stable)” value was -0.32 kcal/mol, the denaturant m value was 0.39 kcal/mol/M, the “denaturant midpoint (higher = more stable)” value (“denaturant midpoint” for short) is 2.6 M and the unfolding free energy was determined as 1.02 kcal/mol.

With A49I, the “ddG of mutation (higher = less stable)” value is -0.3 kcal/mol, the denaturant m value worked out at 0.33 kcal/mol/M, the “denaturant midpoint” value came out at 3 M and the unfolding free energy is 1 kcal/mol.

Regarding A49T, the “ddG of mutation (higher = less stable)” value stood at 0.14 kcal/mol, the denaturant m value was 0.29 kcal/mol/M, the “denaturant midpoint” value worked out at 1.9 M and the unfolding free energy is 0.56 kcal/mol.

As for T48I, the “ddG of mutation (higher = less stable)” value is -0.07 kcal/mol, the denaturant m value was 0.31 kcal/mol/M, the “denaturant midpoint” value is 2.5 M and the unfolding free energy stood at 0.77 kcal/mol.
